The assay has as its target Mal3 (UniProt Q10113). Description: Mal3-GST pull-down from yeast lysate. The following applies: reference: wild-type Klp2-GFP; sites S113,S123.

For the substance Klp2 (from UniProt Q9US03) Klp2-2A-GFP, the “binding against the reference” value is “stronger”.

The values are drawn from PMC3510020.
